From paper PMC10089224 (2023)
Bridges are numbered along the chain shown (N, C = ends). Where no end group is shown, it is not given here. [ ]: non-standard residue; d: D form.

Columns and labels:
CPI1 [1] = biological target: T1, CPI1 (synthetic construct, thioether N-17); assay: ATPase activity inhibition assay (NADH-coupled), no LTC4
T1 chain: {CH2CO}-[dY]FWGNLHWYYEQFDSTC

CPI1 [2] = biological target: T2, CPI1 (synthetic construct, thioether N-17); assay: ATPase activity inhibition assay (NADH-coupled), with 3.5 µM LTC4
T2 chain: {CH2CO}-[dY]FWGNLHWYYEQFDSTC

B1: MRP1 (bMRP1) (protein)
chain: MALRDFCSVDGSDLFWEWNVTWNTSNPDFTKCFQNTVLVWVPCSYLWVCFPFYFLYLSHHDRGYIQMTHLNKAKTALGFLLWIVCWADLFYSFWERSMGKLLAPVFLVSPTLLGITMLLATFLIQIERRRGVQSSGIMLTFWLIALLCALAILRSKIMTALKEDARVDVFRDVTFYIYFSLVLIQLVLSCFSDRSPLFSETINDPNPCPESSASFLSRITFWWITGMMVQGYRQPLESTDLWSLNKEDTSEQVVPVLVKNWKKECAKSRKQPVKIVYSSKDPAKPKGSSKVDVNEEAEALIVKCPQKERDPSLFKVLYKTFGPYFLMSFLFKAVHDLMMFAGPEILKLLINFVNDKKAPEWQGYFYTALLFISACLQTLVLHQYFHICFVSGMRIKTAVIGAVYRKALVITNAARKSSTVGEIVNLMSVDAQRFMDLATYINMIWSAPLQVILALYLLWLNLGPSVLAGVAVMVLMVPLNAVMAMKTKTYQVAHMKSKDNRIKLMNEILNGIKVLKLYAWELAFKDKVLAIRQEELKVLKKSAYLAAVGTFTWVCTPFLVALSTFAVYVTVDENNILDAQKAFVSLALFNILRFPLNILPMVISSIVQASVSLKRLRVFLSHEDLDPDSIQRRPIKDAGATNSITVKNATFTWARNDPPTLHGITFSVPEGSLVAVVGQVGCGKSSLLSALLAEMDKVEGHVTVKGSVAYVPQQAWIQNISLRENILFGRQLQERYYKAVVEACALLPDLEILPSGDRTEIGEKGVNLSGGQKQRVSLARAVYCDSDVYLLDDPLSAVDAHVGKHIFENVIGPKGLLKNKTRLLVTHAISYLPQMDVIIVMSGGKISEMGSYQELLARDGAFAEFLRTYASAEQEQGQPEDGLAGVGGPGKEVKQMENGMLVTDTAGKQMQRQLSSSSSYSRDVSQHHTSTAELRKPGPTEETWKLVEADKAQTGQVKLSVYWDYMKAIGLFISFLSIFLFLCNHVASLVSNYWLSLWTDDPIVNGTQEHTQVRLSVYGALGISQGITVFGYSMAVSIGGIFASRRLHLDLLHNVLRSPISFFERTPSGNLVNRFSKELDTVDSMIPQVIKMFMGSLFNVIGACIIILLATPMAAVIIPPLGLIYFFVQRFYVASSRQLKRLESVSRSPVYSHFNETLLGVSVIRAFEEQERFIRQSDLKVDENQKAYYPSIVANRWLAVRLECVGNCIVLFASLFAVISRHSLSAGLVGLSVSYSLQVTTYLNWLVRMSSEMETNIVAVERLKEYSETEKEAPWQIQDMAPPKDWPQVGRVEFRDYGLRYREDLDLVLKHINVTIDGGEKVGIVGRTGAGKSSLTLGLFRIKESAEGEIIIDDINIAKIGLHDLRFKITIIPQDPVLFSGSLRMNLDPFSQYSDEEVWTSLELAHLKGFVSALPDKLNHECAEGGENLSVGQRQLVCLARALLRKTKILVLDEATAAVDLETDDLIQSTIRTQFDDCTVLTIAHRLNTIMDYTRVIVLDKGEIQEWGSPSDLLQQRGLFYSMAKDSGLV
Ki (CPI1 [1]): 70 nM
Ki (CPI1 [2]): 95 nM
